± gives the uncertainty stated by the source.
B1: Peripheral plasma membrane protein CASK, residues 488 to 569; numbered along this chain, O14936 (parent)
chain: VRLVQFQKNTDEPMGITLKMNELNHCIVARIMHGGMIHRQGTLHVGDEIREINGISVANQTVEQLQKMLREMRGSITFKIVP

Variants of: B1
Experiment: abundance fitness (aPCA) (normalised: wild type 0, dead -1); higher = more abundant; growth selection in yeast, the domain comes from the species named
Conditions: Homo sapiens

Abundance fitness of substitutions, site by site:
P13: K 0.055 ± 0.07 | T -0.041 ± 0.052 | V -0.046 ± 0.052 | L -0.125 ± 0.04 | E -0.119 ± 0.091 | Q -0.183 ± 0.078 | I -0.154 ± 0.054 | H -0.054 ± 0.051 | N -0.021 ± 0.042 | S -0.036 ± 0.045 | W -0.102 ± 0.098 | G -0.024 ± 0.054 | F -0.126 ± 0.059 | Y -0.154 ± 0.056 | R -0.183 ± 0.046 | D -0.028 ± 0.085 | A -0.065 ± 0.07 | C 0.024 ± 0.06 | M -0.1 ± 0.098
I16: K -1.14 ± 0.24 | L 0.088 ± 0.036 | N -0.654 ± 0.18 | Q -0.849 ± 0.12 | G -0.98 ± 0.075 | P -0.765 ± 0.13 | S -1.08 ± 0.15 | A -0.115 ± 0.035 | E -0.932 ± 0.13 | C -0.143 ± 0.058 | F 0.109 ± 0.064 | W -0.044 ± 0.033 | T -0.659 ± 0.073 | D -0.933 ± 0.21 | V -0.081 ± 0.034 | Y -0.593 ± 0.11
T10: D -0.026 ± 0.057 | P -0.045 ± 0.044 | N -0.075 ± 0.061 | Y -0.097 ± 0.064 | G -0.01 ± 0.024 | K -0.029 ± 0.04 | E -0.07 ± 0.032 | Q -0.111 ± 0.044 | H -0.064 ± 0.071 | W -0.086 ± 0.031 | C 0.066 ± 0.041 | M -0.007 ± 0.042 | F 0.012 ± 0.085 | L -0.05 ± 0.033 | V -0.113 ± 0.028 | A -0.075 ± 0.028 | I -0.081 ± 0.06
M20: Q -0.059 ± 0.038 | D -0.489 ± 0.068 | F 0.026 ± 0.059 | C -0.19 ± 0.047 | H -0.038 ± 0.062 | P -0.325 ± 0.046 | E -0.302 ± 0.042 | A -0.128 ± 0.032 | G -0.453 ± 0.031 | N -0.16 ± 0.076 | K 0.034 ± 0.029 | L -0.016 ± 0.032 | I -0.036 ± 0.053
K19: N -0.037 ± 0.044 | L -0.026 ± 0.028 | R -0.017 ± 0.023 | W -0.195 ± 0.03 | I -0.102 ± 0.045 | V -0.008 ± 0.025 | M -0.071 ± 0.033 | A 0.022 ± 0.026 | E -0.029 ± 0.037 | C -0.089 ± 0.036 | P -0.999 ± 0.1 | G 0.025 ± 0.023 | Y -0.01 ± 0.041 | D -0.016 ± 0.035 | F -0.041 ± 0.036 | T -0.009 ± 0.03 | Q -0.016 ± 0.035 | H -0.01 ± 0.04
V4: Y -0.19 ± 0.055 | K -0.259 ± 0.039 | D -0.842 ± 0.1 | R -0.265 ± 0.023 | F -0.094 ± 0.05 | L -0.024 ± 0.025 | A -0.199 ± 0.027 | T -0.239 ± 0.037 | Q -0.565 ± 0.045 | S -0.392 ± 0.033 | G -0.677 ± 0.028 | I -0.091 ± 0.049 | C -0.165 ± 0.04 | M -0.138 ± 0.037 | W -0.307 ± 0.028 | H -0.235 ± 0.059
V1: L -0.098 ± 0.035 | Y 0.017 ± 0.059 | C -0.056 ± 0.047 | P -0.376 ± 0.11 | F -0.026 ± 0.049 | A -0.119 ± 0.033 | Q -0.189 ± 0.09 | W -0.122 ± 0.047 | N 0.037 ± 0.048 | H -0.207 ± 0.069 | G -0.037 ± 0.028 | E 0.03 ± 0.043 | K -0.046 ± 0.063 | M 0.099 ± 0.045 | I 0.085 ± 0.042 | S -0.095 ± 0.038 | R -0.177 ± 0.043 | T 0.015 ± 0.043 | D 0.055 ± 0.039
Q7: R -0.025 ± 0.022 | A -0.025 ± 0.024 | L -0.027 ± 0.025 | W -0.037 ± 0.025 | S -0.042 ± 0.025 | K -0.017 ± 0.029 | C 0.021 ± 0.035 | D 0.079 ± 0.032 | I 0.074 ± 0.036 | T 0.041 ± 0.03 | V 0.001 ± 0.022 | N 0.02 ± 0.043 | H 0.009 ± 0.043 | P -0.177 ± 0.034 | F -0.021 ± 0.041 | Y 0.021 ± 0.043 | E 0.048 ± 0.026
E12: R -0.143 ± 0.027 | I -0.09 ± 0.094 | L -0.131 ± 0.033 | S -0.089 ± 0.037 | Q -0.063 ± 0.049 | D -0.101 ± 0.05 | Y -0.237 ± 0.07 | N -0.277 ± 0.066 | G -0.059 ± 0.024 | P -0.757 ± 0.15 | A -0.08 ± 0.031 | H -0.154 ± 0.07 | M -0.016 ± 0.04 | F -0.231 ± 0.076 | V -0.139 ± 0.029
F6: M 0.052 ± 0.027 | C -0.01 ± 0.029 | K -0.674 ± 0.047 | A -0.065 ± 0.022 | R -0.673 ± 0.029 | N -0.708 ± 0.069 | H -0.181 ± 0.053 | Q -0.589 ± 0.049 | G -0.405 ± 0.022 | E -0.629 ± 0.038 | T -0.129 ± 0.028 | W -0.251 ± 0.025 | L 0.053 ± 0.023 | Y -0.095 ± 0.035 | S -0.321 ± 0.027 | D -0.712 ± 0.054 | V 0.061 ± 0.022 | I -0.028 ± 0.04 | P -0.924 ± 0.071
M14: Y -0.206 ± 0.049 | L 0.001 ± 0.029 | W -0.042 ± 0.05 | S -0.149 ± 0.033 | C -0.127 ± 0.046 | A -0.078 ± 0.036 | N -0.337 ± 0.047 | T -0.165 ± 0.042 | V -0.017 ± 0.032 | K -0.784 ± 0.1 | Q -0.531 ± 0.07 | R -0.858 ± 0.078 | I 0.055 ± 0.037 | F -0.01 ± 0.04
N9: S -0.009 ± 0.025 | H -0.027 ± 0.04 | D 0.024 ± 0.033 | Y -0.088 ± 0.039 | E 0.055 ± 0.026 | V 0.005 ± 0.022 | I -0.015 ± 0.042 | R -0.031 ± 0.021 | W -0.081 ± 0.025 | G -0.027 ± 0.02 | F -0.035 ± 0.043 | T 0.024 ± 0.029 | Q -0.008 ± 0.027 | M -0.012 ± 0.03 | A -0.003 ± 0.025 | L 0.019 ± 0.024 | C -0.092 ± 0.032
G15: N -0.398 ± 0.048 | S -0.493 ± 0.035 | E -0.201 ± 0.051 | L -0.62 ± 0.044 | Q -0.362 ± 0.06 | V -0.682 ± 0.048 | R -0.467 ± 0.037 | C -0.556 ± 0.045 | W -0.374 ± 0.048 | Y -0.776 ± 0.073 | K -0.538 ± 0.063 | D -0.276 ± 0.037 | H -0.549 ± 0.057 | F -0.427 ± 0.041 | A -0.395 ± 0.04 | P -0.266 ± 0.037
T17: R -0.031 ± 0.021 | A -0.079 ± 0.024 | G -0.023 ± 0.021 | N -0.09 ± 0.032 | P -1.07 ± 0.075 | M -0.046 ± 0.029 | S -0.051 ± 0.023 | F -0.071 ± 0.045 | L 0.019 ± 0.023 | Q -0.001 ± 0.029 | H 0.031 ± 0.029 | V 0.003 ± 0.023 | C -0.045 ± 0.034 | K 0.015 ± 0.03 | I 0.092 ± 0.03 | E -0.019 ± 0.028
K8: N -0.098 ± 0.043 | I 0.002 ± 0.045 | F -0.291 ± 0.051 | S -0.169 ± 0.029 | M -0.087 ± 0.032 | R -0.021 ± 0.022 | Y -0.093 ± 0.043 | W -0.136 ± 0.026 | V -0.007 ± 0.023 | Q 0.004 ± 0.031 | P -0.256 ± 0.034 | T -0.179 ± 0.032 | E -0.505 ± 0.036 | D -0.403 ± 0.045 | A -0.071 ± 0.025 | G -0.242 ± 0.022 | C -0.326 ± 0.038 | L -0.028 ± 0.024
R2: H -0.05 ± 0.061 | V -0.089 ± 0.029 | N 0.091 ± 0.057 | C -0.09 ± 0.049 | Y -0.002 ± 0.065 | T -0.038 ± 0.038 | S -0.084 ± 0.036 | A -0.149 ± 0.03 | M 0.019 ± 0.033 | D -0.149 ± 0.054 | G -0.225 ± 0.024 | I -0.029 ± 0.06 | E -0.028 ± 0.034 | L -0.159 ± 0.036 | K -0.055 ± 0.036
D11: E -0.05 ± 0.03 | M -0.11 ± 0.06 | V -0.072 ± 0.032 | K -0.054 ± 0.061 | Y -0.22 ± 0.077 | W -0.175 ± 0.038 | F -0.251 ± 0.16 | H 0.075 ± 0.077 | Q 0.021 ± 0.05 | S 0.009 ± 0.04 | P -0.069 ± 0.043 | R -0.023 ± 0.029 | T 0.055 ± 0.049 | G -0.034 ± 0.029 | I -0.142 ± 0.074 | A -0.027 ± 0.031 | L -0.092 ± 0.038 | C -0.136 ± 0.057 | N 0.08 ± 0.05
L3: Y -0.015 ± 0.043 | F 0.007 ± 0.05 | D -0.141 ± 0.041 | V 0.002 ± 0.026 | W -0.113 ± 0.026 | E 0.094 ± 0.029 | K -0.026 ± 0.034 | P -0.322 ± 0.044 | N -0.13 ± 0.053 | A -0.14 ± 0.029 | Q 0.018 ± 0.03 | C -0.198 ± 0.038 | S -0.026 ± 0.028 | T 0.033 ± 0.034 | G -0.307 ± 0.023 | I 0.085 ± 0.064
L18: T -0.646 ± 0.086 | P -1.2 ± 0.22 | H -0.877 ± 0.28 | K -0.796 ± 0.14 | I -0.055 ± 0.098 | A -0.761 ± 0.065 | Y -0.277 ± 0.15 | S -0.699 ± 0.063 | D -1.13 ± 0.23 | M -0.128 ± 0.05 | E -0.909 ± 0.096 | C -0.262 ± 0.045 | N -0.918 ± 0.35 | V -0.088 ± 0.029 | Q -0.797 ± 0.13 | R -0.986 ± 0.07 | F 0.04 ± 0.061 | W -0.492 ± 0.05
Q5: Y -0.024 ± 0.031 | G 0 ± 0.023 | K 0.128 ± 0.03 | V 0.029 ± 0.023 | H -0.049 ± 0.033 | A 0.07 ± 0.023 | S 0.075 ± 0.024 | F -0.041 ± 0.032 | W -0.106 ± 0.028 | L -0.092 ± 0.023 | R 0.074 ± 0.023 | D -0.038 ± 0.034 | M 0.065 ± 0.029 | T 0.117 ± 0.025 | E 0.149 ± 0.027 | I -0.068 ± 0.03

Source: the Human Domainome abundance scans (Beltran et al. 2025)
